PMC6650433, “Evolution of metazoan oxygen-sensing involved a conserved divergence of VHL affinity for HIF1α and HIF2α” (Nature Communications, 2019)
Where a chain is given by its changes, count along the chain named. Names may count otherwise. Blank lines part the entries; values can stand above or below the molecule they belong to. [ ]: non-standard residue; d: D form. The star is where a group is joined. Biotin = O=C1N[C@H]2[C@H](CS[C@H]2CCCCC(=O)*)N1; Hyp = O=C(O)[C@@H]1C[C@@H](O)CN1

Key:
HA-VHL30 [1] = assay: In vitro pVHL-HIFα binding (pulldown) assay, VHL WT; parameters: species or system human; conditions: 1.2 μg biotinylated peptide on streptavidin agarose beads, IVTT HA-VHL30, EBC buffer, two hours at 4 °C, anti-HA immunoblot, qualitative
Experimental: The in vitro pVHL-HIFα binding assay was performed as previously described. HA-VHL30 was expressed in an IVTT rabbit reticulocyte lysate system (Promega, Cat. No. L1170) and incubated with 1.2 μg of biotinylated HIFαOH peptide immobilized on streptavidin agarose beads in 500 μL of EBC buffer (50 mM Tris-HCl pH 8.0, 120 mM NaCl, 0.5% (v/v) NP-40) for two hours at 4 °C. To perform a competition binding assay, 1.8 μg of biotinylated HIFαOH peptide immobilized on streptavidin agarose beads competed with 1 μg of acetylated HIFαOH peptide. Following incubation, beads were washed 4x with NETN buffer (20 mM Tris-HCl pH 8.0, 100 mM NaCl, 1 mM EDTA, 0.5% (v/v) NP-40). Biotinylated peptide was pulled down via streptavidin agarose beads and protein was eluted by boiling beads in sample buffer. Protein levels of HA-VHL30 were determined by immunoblotting.

[2] = molecular target: T1, VHL-elongin B-elongin C (VBC) complex (Homo sapiens, UniProt P40337+Q15369+Q15370); assay: Biolayer interferometry, VBC WT binding to immobilized HIFα peptide; conditions: VHL/HIFα binding experiments, Fig. 2b (pulldown) and Fig. 2d (BLI), in words
T1 construct: made in house
T1 sequence (P40337 54-213 limits assumed): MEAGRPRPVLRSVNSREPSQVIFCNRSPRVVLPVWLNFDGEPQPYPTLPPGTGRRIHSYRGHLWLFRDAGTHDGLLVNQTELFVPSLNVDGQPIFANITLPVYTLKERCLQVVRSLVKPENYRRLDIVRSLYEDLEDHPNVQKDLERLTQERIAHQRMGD
T1 sequence (Q15370 whole entry partner): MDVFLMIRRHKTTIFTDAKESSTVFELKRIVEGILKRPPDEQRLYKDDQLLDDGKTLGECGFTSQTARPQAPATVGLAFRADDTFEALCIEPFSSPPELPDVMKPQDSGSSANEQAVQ
T1 sequence (Q15369 17-112 partner limits assumed): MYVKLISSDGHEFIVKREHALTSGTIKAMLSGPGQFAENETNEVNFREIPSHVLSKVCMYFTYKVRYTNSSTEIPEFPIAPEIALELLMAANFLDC
Experimental: The binding affinities of VBC to hydroxylated HIFα peptide was measured by biolayer interferometry using the BLItz system (Pall ForteBio). A 50 μg/mL solution of biotinylated HIFα peptide was prepared in kinetics buffer (20 mM HEPES pH 7.4, 200 mM NaCl, 1 mM DTT, 0.02% (v/v) Tween-20, and 0.5% (w/v) BSA) and immobilized onto streptavidin (SA)-coated biolayer interferometry (BLI) biosensors (Pall ForteBio, Cat. No. 18–5019) over 120 s. Multiple concentrations of purified VBC complex were diluted in kinetics buffer and allowed to associate with immobilized peptide over 120 s. Subsequently, the SA-BLI probe was immersed into kinetics buffer for 120 s to allow for dissociation. Both protein and buffer were chilled on ice immediately before use. The data were analyzed, step corrected, reference corrected, and fit to a global 1:1 binding model. Kd, ka, and kd were calculated using the BLItz Pro software. All measurements were performed in triplicate with independently purified recombinant protein.

[3] = molecular target: VHL-elongin B-elongin C (VBC) complex, wild type, P40337;Q15370;Q15369; assay: biolayer interferometry (BLI); conditions: chain shown with the change;, read off a plot
HA-VHL30 [4] = assay: In vitro hydroxylation and co-immunoprecipitation of HIFα ODD with VHL WT; type: binding, human; conditions: IVTT 3xFLAG-HIFα ODD hydroxylated with HIS6-PHD2 (181–426) for 1 h, anti-FLAG IP, anti-HA immunoblot, compared with the WT ODD, qualitative
Experimental: (§1) 3xFLAG-HIFα ODD was expressed via the rabbit reticulocyte lysate system. HIFα ODD was incubated with 15 μg/μL HIS6-PHD2 (181–426) in 200 μL of 40 mM HEPES pH 7.4, 80 mM KCl, 5 mM a-ketoglutarate, 2 mM ascorbic acid, 100 μM FeCl2 tetrahydrate solution at 30 °C for 1 h. Following hydroxylation, 3xFLAG-HIFα was incubated with IVTT VHL30 in 500 μL of wash buffer (40 mM HEPES pH 7.4, 80 mM KCl, 0.05% (v/v) Tween-20, 250 μM EDTA, 1 mM DTT) supplemented with protease inhibitors for 2 h at 4 °C. Following binding, 3xFLAG-HIFα ODD was immunoprecipitated with anti-FLAG antibody immobilized on protein A beads. Protein was eluted by boiling beads in sample buffer. Protein levels of HA-VHL30 were determined by immunoblotting.

VHL F91Y = assay: In vitro hydroxylation and co-immunoprecipitation of HIFα ODD with VHL F91Y; type: binding, human; conditions: IVTT 3xFLAG-HIF1α ODD hydroxylated with HIS6-PHD2, anti-FLAG IP, anti-HA immunoblot, qualitative
Experimental: as §1

levels of HA-VHL pulled down by immobilized biotinylated HIFαOH peptide (affinity for VHL) (HA-VHL30 [1]): did not affect the affinity
Molecule: NLE-substituted HIF1α: hydroxylated HIF1α peptide, Met561 substituted with norleucine

Molecule: HIF2αOH(∆G537): hydroxylated HIF2α peptide with deletion of G537 (Biotin-ELDLETLA[Hyp]YIPMDEDFQ-NH2; SMILES CC[C@H](C)[C@H](NC(=O)[C@H](Cc1ccc(O)cc1)NC(=O)[C@@H]1C[C@@H](O)CN1C(=O)[C@H](C)NC(=O)[C@H](CC(C)C)NC(=O)[C@@H](NC(=O)[C@H](CCC(=O)O)NC(=O)[C@H](CC(C)C)NC(=O)[C@H](CC(=O)O)NC(=O)[C@H](CC(C)C)NC(=O)[C@H](CCC(=O)O)NC(=O)CCCC[C@@H]1SC[C@@H]2NC(=O)N[C@@H]21)[C@@H](C)O)C(=O)N1CCC[C@H]1C(=O)N[C@@H](CCSC)C(=O)N[C@@H](CC(=O)O)C(=O)N[C@@H](CCC(=O)O)C(=O)N[C@@H](CC(=O)O)C(=O)N[C@@H](Cc1ccccc1)C(=O)N[C@@H](CCC(N)=O)C(N)=O)
levels of HA-VHL pulled down by immobilized biotinylated HIFαOH peptide (affinity for VHL) (HA-VHL30 [1]): minor decrease in affinity for VHL

Molecule: HIF2α T528M: hydroxylated HIF2α peptide with T528M substitution (Biotin-ELDLEMLA[Hyp]YIPMDGEDFQ-NH2; SMILES CC[C@H](C)[C@H](NC(=O)[C@H](Cc1ccc(O)cc1)NC(=O)[C@@H]1C[C@@H](O)CN1C(=O)[C@H](C)NC(=O)[C@H](CC(C)C)NC(=O)[C@H](CCSC)NC(=O)[C@H](CCC(=O)O)NC(=O)[C@H](CC(C)C)NC(=O)[C@H](CC(=O)O)NC(=O)[C@H](CC(C)C)NC(=O)[C@H](CCC(=O)O)NC(=O)CCCC[C@@H]1SC[C@@H]2NC(=O)N[C@@H]21)C(=O)N1CCC[C@H]1C(=O)N[C@@H](CCSC)C(=O)N[C@@H](CC(=O)O)C(=O)NCC(=O)N[C@@H](CCC(=O)O)C(=O)N[C@@H](CC(=O)O)C(=O)N[C@@H](Cc1ccccc1)C(=O)N[C@@H](CCC(N)=O)C(N)=O)
levels of HA-VHL pulled down by immobilized biotinylated HIFαOH peptide (affinity for VHL) (HA-VHL30 [1]): increased affinity for VHL

Molecule: HIF1αOH(D570delinsGE): hydroxylated HIF1α peptide with insertion of Glyn+6 to mimic HIF2α (Biotin-DLDLEMLA[Hyp]YIPMDGDDFQ-NH2; SMILES CC[C@H](C)[C@H](NC(=O)[C@H](Cc1ccc(O)cc1)NC(=O)[C@@H]1C[C@@H](O)CN1C(=O)[C@H](C)NC(=O)[C@H](CC(C)C)NC(=O)[C@H](CCSC)NC(=O)[C@H](CCC(=O)O)NC(=O)[C@H](CC(C)C)NC(=O)[C@H](CC(=O)O)NC(=O)[C@H](CC(C)C)NC(=O)[C@H](CC(=O)O)NC(=O)CCCC[C@@H]1SC[C@@H]2NC(=O)N[C@@H]21)C(=O)N1CCC[C@H]1C(=O)N[C@@H](CCSC)C(=O)N[C@@H](CC(=O)O)C(=O)NCC(=O)N[C@@H](CC(=O)O)C(=O)N[C@@H](CC(=O)O)C(=O)N[C@@H](Cc1ccccc1)C(=O)N[C@@H](CCC(N)=O)C(N)=O)
VHL/HIFα complex stability [2]: does not overtly modulate complex stability

levels of HA-VHL pulled down by immobilized biotinylated HIFαOH peptide (affinity for VHL) (HA-VHL30 [1]): further decrease in VHL affinity
Molecule: MetO2: hydroxylated HIF1α peptide, Met561 completely oxidized to methionine sulfone (MetO2)

Molecule: Bio-HIF1αOH(M561A): hydroxylated HIF1α peptide, Met561 substituted with alanine (Biotin-DLDLEALA[Hyp]YIPMDDDFQ-NH2; SMILES CC[C@H](C)[C@H](NC(=O)[C@H](Cc1ccc(O)cc1)NC(=O)[C@@H]1C[C@@H](O)CN1C(=O)[C@H](C)NC(=O)[C@H](CC(C)C)NC(=O)[C@H](C)NC(=O)[C@H](CCC(=O)O)NC(=O)[C@H](CC(C)C)NC(=O)[C@H](CC(=O)O)NC(=O)[C@H](CC(C)C)NC(=O)[C@H](CC(=O)O)NC(=O)CCCC[C@@H]1SC[C@@H]2NC(=O)N[C@@H]21)C(=O)N1CCC[C@H]1C(=O)N[C@@H](CCSC)C(=O)N[C@@H](CC(=O)O)C(=O)N[C@@H](CC(=O)O)C(=O)N[C@@H](CC(=O)O)C(=O)N[C@@H](Cc1ccccc1)C(=O)N[C@@H](CCC(N)=O)C(N)=O)
levels of HA-VHL pulled down by immobilized biotinylated HIFαOH peptide (affinity for VHL) (HA-VHL30 [1]): decreased affinity for pVHL

koff ([3]; parent: est. 0.0075 s-1): 0.011 s⁻¹ | koff ([3]; parent: est. 0.0078): 0.011 s⁻¹
Molecule: ELDLETLAPYIPMDEDFQ [hydroxylated HIF2α peptide (523–541), biotinylated G537del]

B1: HIF2α ODD T528M: IVTT 3xFLAG-HIF2α(390–554) ODD protein with T528M substitution (protein, UniProt Q99814 390-554, looked up, fragment T528M)
chain: FTKLKEEPEELAQLAPTPGDAIISLDFGNQNFEESSAYGKAILPPSQPWATELRSHSTQSEAGSLPAFTVPQAAAPGSTTPSATSSSSSCSTPNSPEDYYTSLDNDLKIEVIEKLFAMDTEAKDQCSTQTDFNELDLEMLAPYIPMDGEDFQLSPICPEERLLAE
modifications: ODD 3xFLAG tag
notes: IVTT 3xFLAG-HIF2α(390–554) ODD protein with T528M substitution
affinity of HIFα ODD protein for VHL (HA-VHL co-immunoprecipitated) (HA-VHL30 [4]): increased the affinity

B2: HIF1α ODD M561T: IVTT 3xFLAG-HIF1α ODD (387–581) with M561T substitution (protein)
chain: FDKLKKEPDALTLLAPAAGDTIISLDFGSNDTETDDQQLEEVPLYNDVMLPSPNEKLQNINLAMSPLPTAETPKPLRSSADPALNQEVALKLEPNPESLELSFTMPQIQDQTPSPSDGSTRQSSPEPNSPSEYCFYVDSDMVNEFKLELVEKLFAEDTEAKNPFSTQDTDLDLETLAPYIPMDDDFQLRSFDQLS
modifications: hydroxylated in vitro by HIS6-PHD2 (181–426) for one hour before the binding; left off: 3xFLAG, end not stated, kept
notes: IVTT 3xFLAG-HIF1α ODD (387–581) with M561T substitution
HIFα ODD bound by VHL F91Y, compared with VHL WT (VHL F91Y): bound less | affinity of HIFα ODD protein for VHL (HA-VHL co-immunoprecipitated) (HA-VHL30 [4]): decreased affinity

B3: HIF1αODD WT: IVTT 3xFLAG-tagged HIF1α oxygen-dependent degradation domain (387–581), wild type (protein)
chain: B2 chain with T175M
modifications: hydroxylated in vitro by HIS6-PHD2 (181–426) for one hour before the binding; left off: 3xFLAG, end not stated, kept
notes: IVTT 3xFLAG-tagged HIF1α oxygen-dependent degradation domain (387–581), wild type
HIFα ODD bound by VHL F91Y, compared with VHL WT (VHL F91Y): bound less
